Measured values published in the supplement of paper PMC10724198.
± gives the standard deviation of the averaged measurements.

The sequences below were run on Saccharomyces cerevisiae (assay: protein stability index of tFT-peptide fusion (C-terminal peptide) (PSI (0-1 scale)); higher = more stable (slower turnover)). Conditions: genetic background: wild type; temperature: 30 C.
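Also: PSI is a weighted mean of sequencing reads over stability bins, variants kept only with over 10 reads, mCherry proximal and sfGFP distal, peptide attached via GGGS linker.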

LLSYLRNCCAEH and LLTFSSCALPYR are within error of each other in protein stability index: 0.687 ± 0.035 for the first, 0.676 ± 0.092 for the second.

LLTGKTVPKDST and LLWGSSPDGGQG are within error of each other in protein stability index: 0.705 ± 0.016 for the first, 0.694 ± 0.019 for the second.

Compared with LLYLFMSSRFLW, LMCSSGGGCSCG is higher in protein stability index: 0.6369 ± 0.003 for the first, 0.706 ± 0.023 for the second.

LNGRYGGFGHRC and LNLLCGFRQVGG are the same in protein stability index: 0.7009 ± 0.007 for the first, 0.701 ± 0.013 for the second.

LNNLTVVDVAGL and LNTETNVVLLEG are within error of each other in protein stability index: 0.69 ± 0.017 for the first, 0.671 ± 0.035 for the second.

LNTVRKSKDKAI and LNVVSRLLACGL are within error of each other in protein stability index: 0.706 ± 0.19 for the first, 0.642 ± 0.022 for the second.

LPAARQSVLPPA and LPASPPLSGLIF are within error of each other in protein stability index: 0.732 ± 0.0085 for the first, 0.823 ± 0.14 for the second.

Compared with LPCFPSLNRNPL, LPCPSPPPSPLS is lower in protein stability index: 0.7397 ± 0.0015 for the first, 0.675 ± 0.06 for the second.

LPCVSTCCSCLL and LPDSHHQTMGVF are within error of each other in protein stability index: 0.706 ± 0.011 for the first, 0.711 ± 0.055 for the second.

LPGCGSYLSGNV and LPKTSPRSRRER are within error of each other in protein stability index: 0.651 ± 0.056 for the first, 0.6868 ± 0.0053 for the second.

LPLIPTSSRRHS and LPLLSSLLALLY are within error of each other in protein stability index: 0.682 ± 0.024 for the first, 0.647 ± 0.042 for the second.

Going from LPLPHAPPPPPT to LPLPPALPSPSL, the protein stability index falls from 0.7233 ± 0.0026 to 0.658 ± 0.027.

LPLPPPCSRVLF and LPLPPPPLLPAP are within error of each other in protein stability index: 0.644 ± 0.074 for the first, 0.732 ± 0.057 for the second.

LPLPPPPPCCSF and LPMGGMFVARSI are within error of each other in protein stability index: 0.701 ± 0.015 for the first, 0.653 ± 0.059 for the second.

LPPDSLRPPGPP and LPPFPLPPPLLS are within error of each other in protein stability index: 0.761 ± 0.017 for the first, 0.68 ± 0.1 for the second.

LPPGDPPPRGPP and LPPHAPIPRWKP are within error of each other in protein stability index: 0.597 ± 0.045 for the first, 0.776 ± 0.17 for the second.

Compared with LPPHPPSPPFLP, LPPPFPWSPSGP is higher in protein stability index: 0.588 ± 0.023 for the first, 0.698 ± 0.066 for the second.

LPPPLLPTPMAP and LPPPPRPRSLLS are within error of each other in protein stability index: 0.661 ± 0.09 for the first, 0.693 ± 0.047 for the second.

LPPPPSPLPPRP and LPPPRPLPIPSP are within error of each other in protein stability index: 0.627 ± 0.048 for the first, 0.711 ± 0.047 for the second.

LPPRLPLSLDVL and LPPTPTLPLVPP are within error of each other in protein stability index: 0.675 ± 0.086 for the first, 0.7153 ± 0.0053 for the second.

LPRASPKARTLR and LPRASQFLLPVP are within error of each other in protein stability index: 0.714 ± 0.075 for the first, 0.651 ± 0.065 for the second.

First: LPRFTPPLPPPL
Second: LPRNQPVPFPCH
The protein stability index of the first is higher: 0.734 ± 0.0096 for the first, 0.677 ± 0.0094 for the second.

LPRPPPFSPPPP and LPRREQILRKGS are within error of each other in protein stability index: 0.651 ± 0.11 for the first, 0.71 ± 0.023 for the second.

First: LPRSRLAPPPCS
Second: LPSARLPPPPPR
The protein stability index of the first is higher: 0.73 ± 0.015 for the first, 0.683 ± 0.021 for the second.

LPSEAPSLLAPP and LPSHAPRRPTFP are within error of each other in protein stability index: 0.663 ± 0.084 for the first, 0.7403 ± 0.0056 for the second.

LPSLLPESGLCF and LPSPPPSSPLPP are within error of each other in protein stability index: 0.604 ± 0.0086 for the first, 0.56 ± 0.048 for the second.

LPSPYPPPRPLP and LPSQRPWLAQSI are within error of each other in protein stability index: 0.711 ± 0.034 for the first, 0.717 ± 0.01 for the second.

Going from LPSSAVDLYTRP to LPSSPFPPLPVT, the protein stability index rises from 0.6468 ± 0.0059 to 0.6889 ± 0.0042.

LPSTQSPPPPLP and LPTASLLPPPPP are within error of each other in protein stability index: 0.705 ± 0.077 for the first, 0.626 ± 0.078 for the second.

LPTKPVPIPRHY and LPTPSQYFFPPP are within error of each other in protein stability index: 0.693 ± 0.052 for the first, 0.736 ± 0.018 for the second.

First: LPTPSSSYLYPA
Second: LPTPTPPPALRS
The protein stability index of the first is lower: 0.611 ± 0.017 for the first, 0.689 ± 0.053 for the second.

Going from LPTYPPTLPVPS to LPVPFFPPCPFR, the protein stability index rises from 0.638 ± 0.04 to 0.732 ± 0.012.

LPYHSSPPSSSP and LQAKRTAGPGEH are within error of each other in protein stability index: 0.702 ± 0.046 for the first, 0.68423 ± 0.00012 for the second.

LQIFRSRCFGGL and LQKRKQMRKIKE are within error of each other in protein stability index: 0.722 ± 0.13 for the first, 0.646 ± 0.019 for the second.

Going from LRALLSHPRRCA to LRAPPPPAQPFV, the protein stability index rises from 0.625 ± 0.034 to 0.694 ± 0.012.

Going from LRFELCLCIEPA to LRFIIPSDLSFV, the protein stability index rises from 0.53 ± 0.059 to 0.696 ± 0.03.

LRFVTAGEFEMK and LRGIGVSWWKGL are within error of each other in protein stability index: 0.635 ± 0.061 for the first, 0.583 ± 0.023 for the second.

Going from LRGLLWFSRVGS to LRGNDRLLSKRI, the protein stability index rises from 0.618 ± 0.011 to 0.694 ± 0.022.

LRGSDYIVIGGS and LRGVDYEQMSDP are within error of each other in protein stability index: 0.656 ± 0.025 for the first, 0.667 ± 0.11 for the second.

LRHLLAPPPRPP and LRHLPHPTCSLL are within error of each other in protein stability index: 0.649 ± 0.016 for the first, 0.7 ± 0.06 for the second.

LRKTNQKIRSFK and LRLLPRIVSPSV are within error of each other in protein stability index: 0.614 ± 0.037 for the first, 0.6 ± 0.022 for the second.

LRLLSFFITSFL and LRPFSPSPPRPF are within error of each other in protein stability index: 0.64 ± 0.13 for the first, 0.705 ± 0.013 for the second.

LRPLSPPTLLPA and LRPPPAAHSLGP are within error of each other in protein stability index: 0.664 ± 0.022 for the first, 0.645 ± 0.012 for the second.

LRQWRRERAIII and LRRLSSIGWSRI are within error of each other in protein stability index: 0.601 ± 0.042 for the first, 0.754 ± 0.14 for the second.

LRSLSLSYVALR and LRSVNVLAALFS are within error of each other in protein stability index: 0.6592 ± 0.0017 for the first, 0.686 ± 0.043 for the second.

LRVNFPLHDPHP and LRVSPVALPSSW are within error of each other in protein stability index: 0.65 ± 0.049 for the first, 0.81 ± 0.13 for the second.

LSADVNRRLGLS and LSAFLLLMPRLP are within error of each other in protein stability index: 0.674 ± 0.035 for the first, 0.659 ± 0.01 for the second.

Compared with LSALPLTRPLAR, LSALSLFLFFLR is lower in protein stability index: 0.709 ± 0.043 for the first, 0.58 ± 0.046 for the second.

Going from LSAPLPPLSAPP to LSAQNNTGIVKT, the protein stability index falls from 0.667 ± 0.0099 to 0.623 ± 0.0084.

LSATGSCSPRRG and LSCLIPLPAPPL are within error of each other in protein stability index: 0.693 ± 0.014 for the first, 0.662 ± 0.052 for the second.

Compared with LSCRLDGIVIWF, LSFLAPGPPPAR is higher in protein stability index: 0.64 ± 0.051 for the first, 0.735 ± 0.039 for the second.

LSGRQKLNMSIR and LSHAQIDPEFTE are within error of each other in protein stability index: 0.682 ± 0.029 for the first, 0.697 ± 0.042 for the second.

LSHIPDRQRLKP and LSHPPPPPSSAT are within error of each other in protein stability index: 0.715 ± 0.062 for the first, 0.716 ± 0.027 for the second.

First: LSHSSPLFSPLV
Second: LSIGDLTIEKKL
The protein stability index of the first is higher: 0.72 ± 0.0077 for the first, 0.686 ± 0.022 for the second.

First: LSISPSPPPPLW
Second: LSKSPRPARCSA
The protein stability index of the first is higher: 0.706 ± 0.052 for the first, 0.6091 ± 0.0024 for the second.

Going from LSLGGSPSKRRP to LSLPPHASPTPS, the protein stability index rises from 0.648 ± 0.029 to 0.735 ± 0.055.

LSLTRIFQLTRW and LSPAPPHRYSPY are within error of each other in protein stability index: 0.721 ± 0.023 for the first, 0.7 ± 0.043 for the second.

LSPASPGPFLSC and LSPCVGGLFGVV are within error of each other in protein stability index: 0.72 ± 0.022 for the first, 0.693 ± 0.017 for the second.

LSPFCIRSLRPD and LSPPAPPLLFSP are within error of each other in protein stability index: 0.647 ± 0.069 for the first, 0.691 ± 0.035 for the second.

LSPPPHTSVPRL and LSPPYCPGALTL are within error of each other in protein stability index: 0.659 ± 0.12 for the first, 0.646 ± 0.0081 for the second.

LSPVSPRPLLPV and LSPYFWITEDAS are within error of each other in protein stability index: 0.773 ± 0.12 for the first, 0.7028 ± 0.0051 for the second.

First: LSRPCPFYPPPR
Second: LSSFFLLPCLSS
The protein stability index of the first is higher: 0.701 ± 0.037 for the first, 0.576 ± 0.021 for the second.

LSSFHCIVTVKD and LSSFPLPFPPPL are within error of each other in protein stability index: 0.652 ± 0.028 for the first, 0.659 ± 0.013 for the second.

LSSPPSPRAFLP and LSSSVAPLIPPP are within error of each other in protein stability index: 0.723 ± 0.065 for the first, 0.767 ± 0.031 for the second.

LSSVFLGICIMS and LSSWPFLPLVRI are within error of each other in protein stability index: 0.543 ± 0.11 for the first, 0.593 ± 0.02 for the second.

LSTPPLPRPYPP and LSTPSLFTPFRA are within error of each other in protein stability index: 0.654 ± 0.038 for the first, 0.715 ± 0.024 for the second.

LSVMLEGLFGLL and LSVWPHSVPSFV are within error of each other in protein stability index: 0.662 ± 0.018 for the first, 0.659 ± 0.036 for the second.

LSYQTGTTRTRK and LTFSPPERLSFH are within error of each other in protein stability index: 0.728 ± 0.056 for the first, 0.737 ± 0.12 for the second.

LTGGNPLTQDGD and LTHLADVRSVLS are within error of each other in protein stability index: 0.689 ± 0.019 for the first, 0.708 ± 0.043 for the second.

Compared with LTHLLTSHTNII, LTNGQRSLCLCS is lower in protein stability index: 0.746 ± 0.081 for the first, 0.6537 ± 0.0048 for the second.

LTPNSLCSFLSR and LTPSLPLPPSET are within error of each other in protein stability index: 0.702 ± 0.013 for the first, 0.654 ± 0.047 for the second.

LTRKTPQKRAPQ and LTRLETSNITAI are within error of each other in protein stability index: 0.704 ± 0.013 for the first, 0.679 ± 0.041 for the second.

LTSVQFNKWTIE and LTTMSPGLLRRP are within error of each other in protein stability index: 0.714 ± 0.047 for the first, 0.639 ± 0.065 for the second.

Compared with LTTRTQTDDRKR, LTVRVTSQPFDL is lower in protein stability index: 0.682 ± 0.0077 for the first, 0.658 ± 0.015 for the second.

First: LVCTLLGAASAP
Second: LVFAAGCVGGVR
The protein stability index of the first is higher: 0.708 ± 0.033 for the first, 0.633 ± 0.021 for the second.

LVGGGGGVGSLV and LVGGGVGVGSLV are within error of each other in protein stability index: 0.628 ± 0.042 for the first, 0.66 ± 0.011 for the second.

LVGRAITTLPPV and LVGSRGCGKIVW are within error of each other in protein stability index: 0.66 ± 0.037 for the first, 0.6 ± 0.026 for the second.

LVIWSFYSEGIV and LVLFFPMLRIRI are within error of each other in protein stability index: 0.52 ± 0.017 for the first, 0.515 ± 0.041 for the second.

LVLGFDVTPGTF and LVLHWPSPREAL are within error of each other in protein stability index: 0.728 ± 0.017 for the first, 0.713 ± 0.071 for the second.

Compared with LVLTPPLLSLYP, LVPLFVLPYGHP is higher in protein stability index: 0.683 ± 0.0083 for the first, 0.768 ± 0.073 for the second.
